According to PMC7790862:

Molecular target: HA-tagged human Junctophilin-2 with seven point mutations in the Joining region (Ad-mut^PG1JPH2) (human) (UniProt Q9BR39)
Experiment: co-IP + proximity ligation

L-type Ca2+ channel pore-forming subunit α1C (natural protein)
percent reduction of the interaction against WT-JPH2: 30 to 40%
